From US20240358849A1 (SUZHOU FUSE BIOSCIENCES, published 2024)
Substitutions are numbered along the chain they refer to. Names and notes keep the numbering of the source. One block for each molecule: values may come before it.

Experiments:
[1] = molecular target: Fc receptor CD64, Avi-tagged (UniProt P12314); assay: BLI, Avi-tagged receptor on streptavidin sensor; IgG complexed with TNFα
[2] = molecular target: T1, human Fibroblast Activation Protein (FAP), soluble antigen (human, UniProt Q12884 26-760, biotinylated when immobilized on streptavidin sensors); assay: not stated (legend of FIG. 18B)
T1 construct: also called hFAP; biotinylated FAP

[3] = molecular target: T1, human Fibroblast Activation Protein …; assay: not stated (legend of FIG. 27C)
[4] = molecular target: T2, IL-2hex, mutant human IL-2 (deltaA1/T3A/F42A/Y45A/L72G/C125S) (human, UniProt P60568 22-153); assay: not stated (legend of FIG. 7B)
T2 chain: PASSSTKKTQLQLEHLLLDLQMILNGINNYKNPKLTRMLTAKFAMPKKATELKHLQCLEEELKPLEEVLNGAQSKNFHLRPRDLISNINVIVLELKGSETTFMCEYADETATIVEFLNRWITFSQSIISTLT

[5] = molecular target: T3, human FAP expressed on cells (HEK 293T-hFAP-E5; ExpiCHO-hFAP) (human, UniProt Q12884 1-760); assay: flow cytometry, 1 µg/mL antibody
T3 construct: hFAP expression vector Sino Biologics HG10464-UT; also called hFAP expressing cells

[6] = molecular target: T1, human Fibroblast Activation Protein …; assay: not stated (legend of FIG. 13A)
[7] = molecular target: human FAP expressed on cells (HEK 293T-hFAP-E5; ExpiCHO-hFAP) (human) (UniProt Q12884); assay: cell-based or functional assay
[8] = molecular target: T1, human Fibroblast Activation Protein …; assay: BLI; Table 11, single domain
[9] = molecular target: T4, human interleukin-2 (IL-2), wild type (human, UniProt P60568 21-153, biotinylated when immobilized); assay: BLI; Table 11 (N.B. = no detectable binding)
T4 construct: also called biotinylated IL-2; IL2 WT

[10] = molecular target: T1, human Fibroblast Activation Protein …; assay: BLI per 6.1.3
[11] = molecular target: T3, human FAP expressed on cells (HEK …); assay: cell-based or functional assay
[12] = molecular target: T2, IL-2hex, mutant human IL-2 …; assay: cell-based or functional assay
[13] = molecular target: T1, human Fibroblast Activation Protein …; assay: Affinity (nM), Table 13B
[14] = molecular target: T2, IL-2hex, mutant human IL-2 …; assay: Affinity (nM), Table 13B
[15] = molecular target: T2, IL-2hex, mutant human IL-2 …; assay: BLI per 6.1.3; column head IL-2 KD
[16] = molecular target: T1, human Fibroblast Activation Protein …; assay: bio-layer interferometry; the legend paragraph 249 gives the pair as B10 and FAP; which of the two is loaded on the sensor is not told
[17] = molecular target: T2, IL-2hex, mutant human IL-2 …; assay: not stated (legend of FIG. 7C)
[18] = molecular target: T1, human Fibroblast Activation Protein …; assay: BLI; Table 11, antibody variants (Fab/scFv)
[19] = molecular target: T4, human interleukin-2 (IL-2), wild type; assay: BLI; Table 11, antibody variants (Fab/scFv)
[20] = molecular target: T2, IL-2hex, mutant human IL-2 …; assay: screening of phage libraries, monoclonal phage ELISA
[21] = molecular target: T1, human Fibroblast Activation Protein …; assay: not stated (legend of FIG. 20B)
[22] = molecular target: T2, IL-2hex, mutant human IL-2 …; assay: not stated (legend of FIG. 20B)

T4 sequence (P60568 21-153): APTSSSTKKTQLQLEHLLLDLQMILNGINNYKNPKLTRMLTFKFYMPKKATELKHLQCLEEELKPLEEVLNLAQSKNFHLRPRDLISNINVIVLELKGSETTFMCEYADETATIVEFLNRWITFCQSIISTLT
Fc receptor CD64, Avi-tagged, sequence (P12314 16-288 limits assumed): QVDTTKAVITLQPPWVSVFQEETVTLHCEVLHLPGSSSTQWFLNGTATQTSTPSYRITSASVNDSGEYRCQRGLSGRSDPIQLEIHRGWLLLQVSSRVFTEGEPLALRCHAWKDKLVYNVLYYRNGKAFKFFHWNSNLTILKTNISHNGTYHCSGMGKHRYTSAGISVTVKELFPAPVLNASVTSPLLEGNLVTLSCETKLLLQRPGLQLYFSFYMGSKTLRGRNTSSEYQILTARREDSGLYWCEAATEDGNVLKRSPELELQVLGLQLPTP

Molecule: Certolizumab IgG, wild-type IgG1 Fc (antibody)
CD64 Binding (% of wild-type Certolizumab-IgG1) [1]: 100%

B1: anchoring moiety of FB-675 and FB-676: scFv872-5Dbl(S-S) (scFv, V domains shown)
VH: EVQLVESGGGLVQPGGSLRLSCAASGFTFRGYIMSWVRQAPGKGLEWVSWIGPEGSRTGYADSVKGRFTISRDNSKNTLYLQMNSLRAEDTAVYYCARLLYGTWFDYWGQGTLVTVSS
VL: DIQMTQSPSSLSASVGDRVTITCRASQSISSYLNWYQQKPGKAPKLLIYAASSLQSGVPSRFSGSGSGTDFTLTISSLQPEDFATYYCQQGTLLLPTFGQGTKVEIKR
modifications: disulfide to VH at VL residue 100; disulfide to VL at VH residue 44
notes: also called scFv872-5V1
Kd [2]: ~0.005 µM | Kd [3]: ~0.05 µM

B6: single domain anti-FAP antibody VHH6 (VHH)
VHH: EVQLVESGGGLVQPGGSLRLSCAASGFTFTPTYMYWVRQAPGKGLEWVSAIDPYGRTEYPDSVKGRFTISRDNAKNTLYLQMNSLRPEDTAVYYCAVRVPPGVYTYYRTGPYDYWGQGTLVTVSS
binding result [5]: binds | binding result [8]: binds | binding result [9]: no binding

B7: D029 HV2LV3 (bispecific antibody, V domains shown)
VH: EVQLVESGGGLVQPGGSLRLSCAASGFTFTWFFMSWVRQAPGKGLEWVSWIGPSGLYTDYADSVKGRFTISRDNSKNTLYLQMNSLRAEDTAVYYCARSQYGRYYSPDYYFDYWGQGTLVTVSS
VL: DIQMTQSPSSLSASVGDRVTITCRASGALGFYLNWYQQKPGKAPKLLIYAASSLSSGVPSRFSGSGSGTDFTLTISSLQPEDFATYYCQQGRTPPFTFGQGTKVEIKR
notes: also called Rev1-Q27G:L96F/S55L:S32F; two-in-one antibody within FB-675
Kd [10]: 0.00366 µM | EC50 of HEK-Blue IL2 assay (pM) with HEK 293T-hFAP-E5; variant as masking moiety of a configuration 3 immunoconjugate [11]: 31 pM | EC50 of HEK-Blue IL2 assay (pM) with HEK 293T; variant as masking moiety of a configuration 3 immunoconjugate [12]: 5300 pM | Kd [13]: 0.0037 µM | Kd [14]: 0.217 µM | Kd [2]: ~0.00366 µM | Kd [15]: 0.217 µM

B8: two-in-one antibody B10 (bispecific antibody, V domains shown)
VH: EVQLVESGGGLVQPGGSLRLSCAASGFTFSRYSMGWVRQAPGKGLEWVSTIHSHGSGTRYADSVKGRFTISRDNSKNTLYLQMNSLRAEDTAVYYCARSQYGRYYSPDYYFDYWGQGTLVTVSS
VL: B7 VL with G27Q, A28N, L29I, G30A, F31R, S55Q, T93Y, P94S
binding result [5]: binds | binding result [16]: binds

B10: D029 mutant Fab of FB-559 (D029HV1 with D029 VL) (bispecific antibody, V domains shown)
VH: B7 VH with F32S
VL: B7 VL with G27Q, A28D, L29G, F31N, A50G, S53T, S55Y, F96L
notes: The legend says only 'D029 mutant'
Kd [17]: ~0.4 µM

B11: anti-IL-2/anti-FAP two-in-one antibody D001 (bispecific antibody, V domains shown)
VH: B8 VH with G35S, T50A, H52S, S53P, H54Y, S56G, R59D
VL: B1 VL with S28V, S30G, Y32S, T92R, L93S, L94Y, L95P, P96Y
notes: Fab/scFv or monovalent Fab-Fc
Kd [18]: 0.03 µM | Kd [19]: > 5 µM | binding result [20]: binds

B12: D029-HV1LV1 (bispecific antibody, V domains shown)
VH: B7 VH with F32S
VL: B7 VL with G27Q, F96L
notes: also called D029 Rev1/S55L; D029HVILV1 (so in the source)
EC50 of HEK-Blue IL2 assay (pM) with HEK 293T-hFAP-E5; variant as masking moiety of a configuration 3 immunoconjugate [11]: 42 pM | EC50 of HEK-Blue IL2 assay (pM) with HEK 293T; variant as masking moiety of a configuration 3 immunoconjugate [12]: 6060 pM | Kd [13]: 0.0018 µM | Kd [14]: 0.427 µM | Kd [21]: > 5 µM | Kd [22]: ~0.237 µM

Continued, values first:

Kd [4]: ~0.02 µM | binding result [5]: binds
B2: two-in-one antibody D047 (bispecific antibody, V domains shown)
VH: EVQLVESGGGLVQPGGSLRLSCAASGFTFHYFSMSWVRQAPGKGLEWVSSISPTYGTTDYADSVKGRFTISRDNSKNTLYLQMNSLRAEDTAVYYCARLLYGTWFDYWGQGTLVTVSS
VL: B1 VL with S28G, S30K, S31N, T92S, L93Y, L95Q
notes: Fab in FB-476

Kd [6]: ~0.005 µM
B3: scFv5, scFv derived from antibody 872-5 (scFv, V domains shown)
VH: B1 VH with G52S, L100Q
VL: B1 VL with G91A
notes: Single chain; also called scFv872-5

enhancement of EC50, HEK-Blue IL-2 reporter, with FAP-expressing cells [7]: < 200 fold
B4: immunoconjugate of configuration 3 with IL-2 polypeptide, D002 Fab and 872-70 scFv (Fc fusion, part only; not given: CH1, Fc subunits, linkers, part only)
chain, part: EVQLVESGGGLVQPGGSLRLSCAASGFTFSRYSMSWVRQAPGKGLEWVSYITSTDGTTDYADSVKGRFTISRDNSKNTLYLQMNSLRAEDTAVYYCARSQYGRYYSPDYYFDYWGQGTLVTVSSDIQMTQSPSSLSASVGDRVTITCRASQSISSYLNWYQQKPGKAPKLLIYAASSLQSGVPSRFSGSGSGTDFTLTISSLQPEDFATYYCQQSRTSPYTFGQGTKVEIKRTVAPASSSTKKTQLQLEHLLLDLQMILNGINNYKNPKLTRMLTAKFAMPKKATELKHLQCLEEELKPLEEVLNGAQSKNFHLRPRDLISNINVIVLELKGSETTFMCEYADETATIVEFLNRWITFSQSIISTLT
heavy, part: EVQLVESGGGLVQPGGSLRLSCAASGFTFSRYSMSWVRQAPGKGLEWVSDISSYSTTYYADSVKGRFTISRDNSKNTLYLQMNSLRAEDTAVYYCARSQYGRYYSPDYYFDYWGQGTLVTVSS
light, part: DIQMTQSPSSLSASVGDRVTITCRASQSIGNSLNWYQQKPGKAPKLLIYAASSLQSGVPSRFSGSGSGTDFTLTISSLQPEDFATYYCQQGRRSPFTFGQGTKVEIKRTVA

enhancement of EC50, HEK-Blue IL-2 reporter, with FAP-expressing cells [7]: < 200 fold
B5: immunoconjugate of configuration 3 with IL-2 polypeptide, D002 Fab and 872-5 scFv (Fc fusion, part only; not given: CH1, Fc subunits, linkers, part only)
chain, part: EVQLVESGGGLVQPGGSLRLSCAASGFTFRGYIMSWVRQAPGKGLEWVSWISPEGSRTGYADSVKGRFTISRDNSKNTLYLQMNSLRAEDTAVYYCARLQYGTWFDYWGQGTLVTVSSDIQMTQSPSSLSASVGDRVTITCRASQSISSYLNWYQQKPGKAPKLLIYAASSLQSGVPSRFSGSGSGTDFTLTISSLQPEDFATYYCQQATLLLPTFGQGTKVEIKRTVAPASSSTKKTQLQLEHLLLDLQMILNGINNYKNPKLTRMLTAKFAMPKKATELKHLQCLEEELKPLEEVLNGAQSKNFHLRPRDLISNINVIVLELKGSETTFMCEYADETATIVEFLNRWITFSQSIISTLT
heavy, part: B4 heavy, part
light, part: B4 light, part

Kd [6]: ~0.001 µM
B9: scFv70, scFv derived from antibody 872-70 (scFv, V domains shown)
VH: B8 VH with G35S, T50Y, H52T, H54T, G55D, S56G, G57T, R59D
VL: B1 VL with G91S, T92R, L93T, L94S, L95P, P96Y
notes: Single chain; also called scFv872-70
